Here are results for twelve molecules from US11130803B2, “Isoform-selective TGFβ1 inhibitors and use thereof” (Scholar Rock, Inc., priority 2018, dated 2021).

Where a chain is given by its changes, count along the chain named.

B1: Ab22: monoclonal antibody; VH SEQ ID NO: 130, VL SEQ ID NO: 15 (antibody, V domains shown)
VH: EVQLVESGGGLVQPGGSLRLSCAASGFTFGSFSMNWVRQAPGKGLEWVSYIHSDASTIYYADSVKGRFTISRDNAKNSLYLQMNSLRAEDTAVYYCARGVLDYGDMLDPWGQGTLVTVSS
VL: DIQMTQSPSSLSASVGDRVTITCQASQDITNYLNWYQQKPGKAPKLLIYDASNLETGVPSRFSGSGSGTDFTFTISSLQPEDIATYYCQQADNHPPWTFGGGTKVEIK
B2: Ab31: monoclonal antibody; VH SEQ ID NO: 139, VL SEQ ID NO: 15 (antibody, V domains shown)
VH: B1 VH with G30S, N35D, H52S, S53P, S78T, G99A
VL: B1 VL
B3: Ab30: monoclonal antibody; VH SEQ ID NO: 138, VL SEQ ID NO: 15 (antibody, V domains shown)
VH: B1 VH with G30S, N35D, H52S, S53P, V100T
VL: B1 VL
B4: Ab32: monoclonal antibody; VH SEQ ID NO: 140, VL SEQ ID NO: 15 (antibody, V domains shown)
VH: B1 VH with G30S, H52S, S53P, D54S, S56D, S78T, L101W, Y103M
VL: B1 VL
B5: Ab33: monoclonal antibody; VH SEQ ID NO: 141, VL SEQ ID NO: 15 (antibody, V domains shown)
VH: B1 VH with G30S, H52S, S53P, D54S, S56D, S78T, R98H
VL: B1 VL
B6: Ab29: monoclonal antibody; VH SEQ ID NO: 137, VL SEQ ID NO: 15 (antibody, V domains shown)
VH: B1 VH with G16R, G30S, S33A, H52S, S53P, D62G, A97V, G99A
VL: B1 VL
B7: Ab26: monoclonal antibody; VH SEQ ID NO: 134, VL SEQ ID NO: 15 (antibody, V domains shown)
VH: B1 VH with G30S, N35D, H52S, S53P, S78T
VL: B1 VL
B8: Ab24: monoclonal antibody; VH SEQ ID NO: 132, VL SEQ ID NO: 15 (antibody, V domains shown)
VH: B1 VH with G16R, G30S, S33A, N35Y, H52S, S53P
VL: B1 VL
B9: Ab11: monoclonal antibody; VH SEQ ID NO: 239, VL SEQ ID NO: 241 (antibody, V domains shown)
VH: EVQLLESGGGLVQPGGSLRLSCAASGFTFRNYAMSWVRQAPGKGLEWVSSISGSGGATYYADSVKGRFTISRDNSKNTLYLQMNSLRAEDTAVYYCARVSSGHWDFDYWGQGTLVTVSS
VL: DIQLTQSPSSLSASVGDRVTITCRASQSISSYLNWYQQKPGKAPKLLIYAASNLQSGVPSRFSGSGSGTDFTLTISSLQPEDFATYYCQQTYTVPLTFGGGTKVEIK
B10: Ab19: monoclonal antibody; VH SEQ ID NO: 250, VL SEQ ID NO: 241 (antibody, V domains shown)
VH: QVQLVESGGGVVQPGRSLRLSCAASGFTFSSFAMTWVRQAPGKGLEWVSAISGSGAATYFADSVKGRFTISRDNSKNTLYLQMNSLRAEDTAVYYCARVSSGHWDFDEWGQGTLVTVSS
VL: B9 VL
B11: Ab12: monoclonal antibody; VH SEQ ID NO: 237, VL SEQ ID NO: 241 (antibody, V domains shown)
VH: B10 VH with S31D, F32Y, T35V, A56F, A57T, F60Y, E108Y
VL: B9 VL
B12: Ab20: monoclonal antibody; VH SEQ ID NO: 251, VL SEQ ID NO: 241 (antibody, V domains shown)
VH: B9 VH with R30S, N31A, S35T, S50A, A57V, F106Y
VL: B9 VL

T2 sequence (P01137 30-390): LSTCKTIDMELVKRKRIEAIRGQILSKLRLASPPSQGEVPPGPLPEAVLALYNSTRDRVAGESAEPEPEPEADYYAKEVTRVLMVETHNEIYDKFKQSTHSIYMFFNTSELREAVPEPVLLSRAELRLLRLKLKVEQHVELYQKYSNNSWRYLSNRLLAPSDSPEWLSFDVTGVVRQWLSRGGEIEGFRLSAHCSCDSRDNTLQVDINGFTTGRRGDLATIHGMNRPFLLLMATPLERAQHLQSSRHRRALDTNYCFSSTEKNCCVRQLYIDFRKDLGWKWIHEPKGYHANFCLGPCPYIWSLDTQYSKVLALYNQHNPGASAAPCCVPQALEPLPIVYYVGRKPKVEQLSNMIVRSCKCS
T2 sequence (Q14766 873-1507 partner): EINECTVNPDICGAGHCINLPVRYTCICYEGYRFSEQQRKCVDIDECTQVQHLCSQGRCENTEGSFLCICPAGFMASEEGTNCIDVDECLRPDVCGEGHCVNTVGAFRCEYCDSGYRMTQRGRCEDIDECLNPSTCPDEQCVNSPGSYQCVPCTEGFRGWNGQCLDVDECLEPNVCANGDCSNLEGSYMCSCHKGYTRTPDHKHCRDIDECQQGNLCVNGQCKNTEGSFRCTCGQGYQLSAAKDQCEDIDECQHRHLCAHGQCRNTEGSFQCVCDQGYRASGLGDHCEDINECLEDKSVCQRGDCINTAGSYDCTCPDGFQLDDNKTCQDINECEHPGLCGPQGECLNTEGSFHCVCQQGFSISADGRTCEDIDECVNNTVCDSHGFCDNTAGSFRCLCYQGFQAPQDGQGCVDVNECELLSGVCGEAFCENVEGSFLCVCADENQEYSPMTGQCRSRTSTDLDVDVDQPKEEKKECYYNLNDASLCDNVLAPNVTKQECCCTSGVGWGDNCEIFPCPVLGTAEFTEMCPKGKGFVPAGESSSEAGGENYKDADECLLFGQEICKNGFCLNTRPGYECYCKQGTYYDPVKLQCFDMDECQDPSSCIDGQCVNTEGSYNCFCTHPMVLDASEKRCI
T1 sequence (P01137 30-390): as the sequence (P01137 30-390) above
T1 sequence (Q86YC3 19-650 partner limits assumed): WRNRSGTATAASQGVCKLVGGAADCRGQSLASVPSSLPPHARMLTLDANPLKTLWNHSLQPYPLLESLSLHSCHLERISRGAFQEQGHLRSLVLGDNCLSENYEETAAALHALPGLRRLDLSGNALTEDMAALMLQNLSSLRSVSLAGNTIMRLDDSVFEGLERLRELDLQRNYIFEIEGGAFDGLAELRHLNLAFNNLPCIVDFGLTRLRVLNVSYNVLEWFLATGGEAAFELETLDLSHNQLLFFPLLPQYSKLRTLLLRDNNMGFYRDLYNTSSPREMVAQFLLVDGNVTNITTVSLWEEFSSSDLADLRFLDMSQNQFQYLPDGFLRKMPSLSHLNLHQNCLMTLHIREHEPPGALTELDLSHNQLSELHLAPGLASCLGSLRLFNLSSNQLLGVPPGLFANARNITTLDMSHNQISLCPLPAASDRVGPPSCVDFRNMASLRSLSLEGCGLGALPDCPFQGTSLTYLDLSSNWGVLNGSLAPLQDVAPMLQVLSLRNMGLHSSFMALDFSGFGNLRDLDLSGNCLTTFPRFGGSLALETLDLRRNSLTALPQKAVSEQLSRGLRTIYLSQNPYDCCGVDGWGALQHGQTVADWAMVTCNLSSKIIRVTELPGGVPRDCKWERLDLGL

The first experiment concerns the target T1, hLRRC33-proTGFβ1 (Homo sapiens, UniProt P01137).
T1 construct: made in house
Nature of the experiment: MSD-SET solution equilibrium titration binding. Conditions: MSD-SET at equilibrium, hIgG4, human complex; in M. From the text:
(§1) Solution Equilibrium Titration (SET): The SET is an assay whereby binding between two molecules (such as an antigen and an antibody that binds the antigen) can be measured at equilibrium in a solution. For example, Meso-Scale Discovery (“MSD”)-based SET, or MSD-SET, is a useful mode of determining dissociation constants for particularly high-affinity protein-protein interactions at equilibrium, such as picomolar-affinity antibodies binding to their antigens (see, for example: Ducata et al. (2015) J Biomolecular Screening 20(10): 1256-1267). The SET-based assays are particularly useful for determining KD values of antibodies with sub-nanomolar (e.g., picomolar) affinities.
(§2) In view of this, it is contemplated that assays that measure binding affinities of such antibodies at equilibrium may more accurately represent the mode of target engagement in vivo. Thus, MSD-SET-based binding assays (or other suitable assays) may be performed, as exemplified in Table 9 below.
(§3) Solution equilibrium titration (“SET”) is an assay whereby binding between two molecules (such as an antigen and an antibody that binds the antigen) can be measured at equilibrium in a solution. For example, Meso-Scale Discovery (“MSD”)-based SET, or MSD-SET, is a useful mode of determining dissociation constants for particularly high-affinity protein-protein interactions at equilibrium (see, for example: Ducata et al. (2015) J Biomolecular Screening 20(10): 1256-1267). The SET-based assays are particularly useful for determining KD values of antibodies with sub-nanomolar (e.g., picomolar) affinities.
(§4) For solution equilibrium titration-based binding assays, protein complexes that comprise one of the presenting molecules such as those shown above may be employed as antigen (presenting molecule-TGFβ1 complex, or an LLC). Test antibodies are allowed to form antigen-antibody complex in solution. Antigen-antibody reaction mixtures are incubated to allow an equilibrium to be reached; the amount of the antigen-antibody complex present in the assay reactions can be measured by suitable means well known in the art. As compared to BLI-based assays, SET-based assays are less affected by on/off rates of the antigen-antibody complex, allowing sensitive detection of very high affinity interactions.
With B1, the “(F) hLRRC33, Cell-associated proTGFβ1 KD” value is 2.00E−10.
With B2, the “(F) hLRRC33, Cell-associated proTGFβ1 KD” value stood at 9.60E−11.
Regarding B3, the “(F) hLRRC33, Cell-associated proTGFβ1 KD” value is recorded as 1.40E−10.
Same read-out and setting: the figure for B4 is 8.70E−11; for B5 it is 4.60E−11.
For the molecule B6, the “(F) hLRRC33, Cell-associated proTGFβ1 KD” value is given as 4.30E−11.
The same measure, in the same setting: the figure for B7 is 1.30E−10; for B8 it is 1.80E−10; for B9 it is 6.30E−09.
On to B10, for which the “(F) hLRRC33, Cell-associated proTGFβ1 KD” value was determined as 5.70E−09.
Turning to B11, the “(F) hLRRC33, Cell-associated proTGFβ1 KD” value came out at 3.20E−09.
As for B12, the “(F) hLRRC33, Cell-associated proTGFβ1 KD” value was 1.60E−09.

The next experiment concerns the target T2, hLTBP1-proTGFβ1 (Homo sapiens, UniProt P01137).
T2 construct: made in house; host or cells: Expi293F cells, transient co-transfection
Nature of the experiment: MSD-SET solution equilibrium titration binding. Conditions: MSD-SET at equilibrium, hIgG4, human complex; in M.
From the text: as §1, §2, §3, §4
In the case of B1, the “(B) hLTBP1, Matrix-associated proTGFβ1 KD” value (“(B) hLTBP1” below) was determined as 5.00E−11.
On the same count and under the same terms, the figure for B2 is 1.90E−11.
As for B3, the “(B) hLTBP1” value came to 3.10E−11.
Turning to B4, the “(B) hLTBP1” value was 3.70E−11.
As to B5, the “(B) hLTBP1” value stood at 1.10E−11.
On to B6, for which the “(B) hLTBP1” value came out at 1.20E−11.
On to B7, for which the “(B) hLTBP1” value is on record as 2.80E−11.
Regarding B8, the “(B) hLTBP1” value is 2.40E−11.
For B9, the “(B) hLTBP1” value is given as 1.20E−09.
Take B10: the “(B) hLTBP1” value was determined as 2.10E−09.
For B11, the “(B) hLTBP1” value turned out to be 7.80E−10.
As to B12, the “(B) hLTBP1” value amounted to 2.20E−10.

The target in a further experiment is T3, hGARP-proTGFβ1 (Homo sapiens, UniProt P01137).
T3 construct: made in house
T3 sequence (P01137 30-390): as the sequence (P01137 30-390) above
T3 sequence (Q14392 20-627 partner limits assumed): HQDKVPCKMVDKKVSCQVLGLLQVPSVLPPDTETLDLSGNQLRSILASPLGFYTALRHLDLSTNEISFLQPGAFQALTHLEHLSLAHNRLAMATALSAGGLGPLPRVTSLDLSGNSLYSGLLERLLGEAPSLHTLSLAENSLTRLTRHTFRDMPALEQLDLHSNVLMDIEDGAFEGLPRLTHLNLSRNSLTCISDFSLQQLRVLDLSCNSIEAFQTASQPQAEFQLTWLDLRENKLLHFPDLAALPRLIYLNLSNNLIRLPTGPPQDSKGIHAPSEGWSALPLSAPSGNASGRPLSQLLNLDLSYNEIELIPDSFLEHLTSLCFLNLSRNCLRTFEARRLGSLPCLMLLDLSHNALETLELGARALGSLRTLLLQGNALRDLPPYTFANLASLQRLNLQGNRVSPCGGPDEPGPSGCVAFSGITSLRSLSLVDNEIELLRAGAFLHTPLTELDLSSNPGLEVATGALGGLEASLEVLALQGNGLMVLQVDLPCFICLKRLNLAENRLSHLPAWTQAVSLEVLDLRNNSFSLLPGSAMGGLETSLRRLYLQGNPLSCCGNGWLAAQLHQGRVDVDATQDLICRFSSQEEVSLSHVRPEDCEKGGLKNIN
Nature of the experiment: MSD-SET solution equilibrium titration binding. The note with it: MSD-SET at equilibrium, hIgG4, human complex; in M.
From the text: as §1, §2, §3, §4
Turning to B1, the “(E) hGARP, Cell-associated proTGFβ1 KD” value is 2.70E−11.
The same measure, in the same setting: the figure for B2 is 1.90E−11.
In the case of B3, the “(E) hGARP, Cell-associated proTGFβ1 KD” value was determined as 2.20E−11.
For B4, the “(E) hGARP, Cell-associated proTGFβ1 KD” value worked out at 1.50E−11.
Same read-out and setting: the same measure for B5: 7.80E−12.
Still for that read-out and setting: the same measure for B6: 5.50E−12.
Still for that read-out and setting: the figure for B7 is 1.40E−11; for B8 it is 1.90E−11; for B9 it is 3.00E−09.
Consider B10, for which the “(E) hGARP, Cell-associated proTGFβ1 KD” value is listed as 3.80E−09.
Take B11: the “(E) hGARP, Cell-associated proTGFβ1 KD” value worked out at 1.70E−09.
For the molecule B12, the “(E) hGARP, Cell-associated proTGFβ1 KD” value came to 1.10E−09.

In a further experiment the target is T4, hLTBP3-proTGFβ1 (Homo sapiens, UniProt P01137).
T4 construct: made in house; host or cells: Expi293F cells, transient co-transfection
T4 sequence (P01137 30-390): as the sequence (P01137 30-390) above
T4 sequence (Q9NS15 866-1039 partner limits assumed): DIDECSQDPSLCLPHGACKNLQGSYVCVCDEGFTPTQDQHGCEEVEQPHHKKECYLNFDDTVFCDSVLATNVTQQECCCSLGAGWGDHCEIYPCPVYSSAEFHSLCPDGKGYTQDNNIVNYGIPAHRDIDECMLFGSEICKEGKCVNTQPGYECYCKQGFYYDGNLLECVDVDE
Nature of the experiment: MSD-SET solution equilibrium titration binding. Conditions: MSD-SET at equilibrium, hIgG4, human complex; in M.
From the text: as §1, §2, §3, §4
Consider B1, for which the “(C) hLTBP3, Matrix-associated proTGFβ1 KD” value (“(C) hLTBP3” below) came to 3.30E−11.
Still for that read-out and setting: the figure for B2 is 1.40E−11; for B3 it is 2.60E−11; for B4 it is 2.60E−11.
Regarding B5, the “(C) hLTBP3” value turned out to be 7.00E−12.
The same measure, in the same setting: the same measure for B6: 1.10E−11.
Take B7: the “(C) hLTBP3” value is 2.30E−11.
Regarding B8, the “(C) hLTBP3” value is on record as 2.10E−11.
As to B9, the “(C) hLTBP3” value was found to be 1.20E−09.
Turning to B10, the “(C) hLTBP3” value was 2.70E−09.
Still for that read-out and setting: the same measure for B11: 6.60E−10.
B12: the “(C) hLTBP3” value amounted to 1.80E−10.
